The labels stand for the following.
B1: mAb 19.1 (antibody, V domains shown)
VH: QVQLKQSGPGLVQPSQSLSISCTVSGFSLTTYGVHWVRQSPGKGLEWLGVIWSGGDTDYNASFISRLRINKDTSKSQVFFKMNSLQADDTAYYCARNKDYYTNYDFTMDYWGQGTSVTVSS
VL: NIMMTQSPSSLAVSAGEKVTMSCKSSQSVLYSSNQKNFLAWYQQKPGQSPKLLIYWASTRESGVPDRFTGSGSGTDFILTINSVQVEDQAVYYCHQYLSSYTFGGGTKLEIK
B2: chimeric 19.1 mAb (antibody, V domains shown)
VH: B1 VH
VL: NIMMTQSPSSLAVSAGEKVTMSCKSSQSVLYSSNQKNFLAWYQQKPGQSPKLLIYWASTRESGVPDRFTGSGSGTDFILTINSVQVEDQAVYYCHQYLSSYTFGGGTKLEIKT
B3: humanized 19.1 mAb with heavy chain variable region humanized 19.1 VH-4-59-01 (antibody, V domains shown)
VH: QVQLQESGPGLVKPSETLSLTCTVSGFSLTTYGVHWIRQPPGKGLEWIGVIWSGGDTDYNASFISRVTISVDTSKNQFSLKLSSVTAADTAVYYCARNKDYYTNYDFTMDYWGQGTTVTVSS
VL: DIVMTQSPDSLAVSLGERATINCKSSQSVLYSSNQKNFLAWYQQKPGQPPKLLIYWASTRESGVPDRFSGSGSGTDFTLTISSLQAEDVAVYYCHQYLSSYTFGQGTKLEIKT
B4: humanized 19.1 mAb with heavy chain variable region humanized 19.1 VH-3-66-04 (antibody, V domains shown)
VH: EVQLVESGGGLVQPGGSLRLSCAASGFSLTTYGVHWVRQAPGKGLEWVSVIWSGGDTDYNASFISRFTISRDNSKNTLYLQMNSLRAEDTAVYYCARNKDYYTNYDFTMDYWGQGTTVTVSS
VL: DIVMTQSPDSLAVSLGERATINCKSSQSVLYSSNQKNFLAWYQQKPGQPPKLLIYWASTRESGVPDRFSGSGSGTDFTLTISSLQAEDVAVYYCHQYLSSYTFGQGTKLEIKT

One may read the Kd as a measure of binding affinity in units of concentration.

For the test, the target named is human properdin (UniProt P27918 28-469). As to the kind of experiment: Biacore SPR.
Sequence of human properdin (P27918 28-469): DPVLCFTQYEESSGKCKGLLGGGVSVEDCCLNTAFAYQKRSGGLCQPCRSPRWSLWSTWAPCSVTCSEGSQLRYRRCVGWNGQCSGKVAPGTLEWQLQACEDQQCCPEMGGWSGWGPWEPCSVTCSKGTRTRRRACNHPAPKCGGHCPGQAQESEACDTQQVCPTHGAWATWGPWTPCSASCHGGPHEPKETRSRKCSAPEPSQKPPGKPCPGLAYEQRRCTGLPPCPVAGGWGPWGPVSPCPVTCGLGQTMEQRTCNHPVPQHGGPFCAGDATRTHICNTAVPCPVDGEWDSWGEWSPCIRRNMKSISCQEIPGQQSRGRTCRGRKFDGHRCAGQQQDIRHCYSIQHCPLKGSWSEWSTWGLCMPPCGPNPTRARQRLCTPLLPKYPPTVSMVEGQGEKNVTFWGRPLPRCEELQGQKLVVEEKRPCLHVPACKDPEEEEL
On to B1, for which binding was characterised by a dissociation constant (Kd) of 2.84 pM.

On to B2, for which the Kd came out at 2.89 pM. For the molecule B3, the dissociation constant Kd turned out to be 580 pM. The same measure for B4: 470 pM.

These data come from patent US20140212427A1 (published 2014).
